Measured values taken from patent US9957297B2, “Template-fixed peptidomimetics as inhibitors of FPR1” (POLYPHOR AG, priority 2011, dated 2018).
Bridges are numbered along the chain shown (N, C = ends). [ ]: non-standard residue; d: D form.

T1: Formyl-Peptide Receptor 1 (UniProt P21462 1-350, limits assumed)
T1 sequence (looked up): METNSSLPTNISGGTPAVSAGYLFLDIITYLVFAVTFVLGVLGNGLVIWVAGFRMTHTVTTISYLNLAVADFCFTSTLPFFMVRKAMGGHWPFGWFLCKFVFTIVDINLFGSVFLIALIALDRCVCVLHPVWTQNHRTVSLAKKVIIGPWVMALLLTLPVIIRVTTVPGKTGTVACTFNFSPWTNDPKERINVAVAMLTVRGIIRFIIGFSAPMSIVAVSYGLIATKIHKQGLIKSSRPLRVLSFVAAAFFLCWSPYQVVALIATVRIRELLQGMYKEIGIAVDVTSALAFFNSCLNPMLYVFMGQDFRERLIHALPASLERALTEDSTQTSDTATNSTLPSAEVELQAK

B1: cyclo(-Tyr-His-Ala-Cys-Trp-Gly-^DAla-Trp-Thr-Ile-Cys-Tyr-Gln-Lys-^DPro-Pro-) (peptide)
peptide: cyclo(YHACWG[dA]WTICYQK[dP]P)
modifications: disulfide 4-11
SMILES: CC[C@H](C)[C@@H]1NC(=O)[C@H]([C@@H](C)O)NC(=O)[C@H](Cc2c[nH]c3ccccc23)NC(=O)[C@@H](C)NC(=O)CNC(=O)[C@H](Cc2c[nH]c3ccccc23)NC(=O)[C@@H]2CSSC[C@H](NC1=O)C(=O)N[C@@H](Cc1ccc(O)cc1)C(=O)N[C@@H](CCC(N)=O)C(=O)N[C@@H](CCCCN)C(=O)N1CCC[C@@H]1C(=O)N1CCC[C@H]1C(=O)N[C@@H](Cc1ccc(O)cc1)C(=O)N[C@@H](Cc1c[nH]cn1)C(=O)N[C@@H](C)C(=O)N2
B2: cyclo(-Tyr-His-Ala-Cys-His-Gly-^DPro-Trp-Thr-Ile-Cys-Tyr-Thr-Lys-^DPro-Pro-) (peptide)
peptide: cyclo(YHACHG[dP]WTICYTK[dP]P)
modifications: disulfide 4-11
SMILES: CC[C@H](C)[C@@H]1NC(=O)[C@H]([C@@H](C)O)NC(=O)[C@H](Cc2c[nH]c3ccccc23)NC(=O)[C@H]2CCCN2C(=O)CNC(=O)[C@H](Cc2c[nH]cn2)NC(=O)[C@@H]2CSSC[C@H](NC1=O)C(=O)N[C@@H](Cc1ccc(O)cc1)C(=O)N[C@@H]([C@@H](C)O)C(=O)N[C@@H](CCCCN)C(=O)N1CCC[C@@H]1C(=O)N1CCC[C@H]1C(=O)N[C@@H](Cc1ccc(O)cc1)C(=O)N[C@@H](Cc1c[nH]cn1)C(=O)N[C@@H](C)C(=O)N2
B3: cyclo(-His-Tyr-Ala-Cys-Trp-Gly-^DPro-Trp-Thr-Ile-Cys-Tyr-Gln-Lys-^DPro-Pro-) (peptide)
peptide: cyclo(HYACWG[dP]WTICYQK[dP]P)
modifications: disulfide 4-11
SMILES: CC[C@H](C)[C@@H]1NC(=O)[C@H]([C@@H](C)O)NC(=O)[C@H](Cc2c[nH]c3ccccc23)NC(=O)[C@H]2CCCN2C(=O)CNC(=O)[C@H](Cc2c[nH]c3ccccc23)NC(=O)[C@@H]2CSSC[C@H](NC1=O)C(=O)N[C@@H](Cc1ccc(O)cc1)C(=O)N[C@@H](CCC(N)=O)C(=O)N[C@@H](CCCCN)C(=O)N1CCC[C@@H]1C(=O)N1CCC[C@H]1C(=O)N[C@@H](Cc1c[nH]cn1)C(=O)N[C@@H](Cc1ccc(O)cc1)C(=O)N[C@@H](C)C(=O)N2
B4: cyclo(-Ala-His-Ala-Cys-Trp-Gly-^DPro-Trp-Thr-Ile-Cys-Tyr-Gln-Lys-^DPro-Pro-) (peptide)
peptide: cyclo(AHACWG[dP]WTICYQK[dP]P)
modifications: disulfide 4-11
SMILES: CC[C@H](C)[C@@H]1NC(=O)[C@H]([C@@H](C)O)NC(=O)[C@H](Cc2c[nH]c3ccccc23)NC(=O)[C@H]2CCCN2C(=O)CNC(=O)[C@H](Cc2c[nH]c3ccccc23)NC(=O)[C@@H]2CSSC[C@H](NC1=O)C(=O)N[C@@H](Cc1ccc(O)cc1)C(=O)N[C@@H](CCC(N)=O)C(=O)N[C@@H](CCCCN)C(=O)N1CCC[C@@H]1C(=O)N1CCC[C@H]1C(=O)N[C@@H](C)C(=O)N[C@@H](Cc1c[nH]cn1)C(=O)N[C@@H](C)C(=O)N2
B5: cyclo(-Tyr-His-Ala-Cys-His-Gly-^DAla-Trp-Thr-Ile-Cys-Tyr-Gln-Lys-^DPro-Pro-) (peptide)
peptide: cyclo(YHACHG[dA]WTICYQK[dP]P)
modifications: disulfide 4-11
SMILES: CC[C@H](C)[C@@H]1NC(=O)[C@H]([C@@H](C)O)NC(=O)[C@H](Cc2c[nH]c3ccccc23)NC(=O)[C@@H](C)NC(=O)CNC(=O)[C@H](Cc2c[nH]cn2)NC(=O)[C@@H]2CSSC[C@H](NC1=O)C(=O)N[C@@H](Cc1ccc(O)cc1)C(=O)N[C@@H](CCC(N)=O)C(=O)N[C@@H](CCCCN)C(=O)N1CCC[C@@H]1C(=O)N1CCC[C@H]1C(=O)N[C@@H](Cc1ccc(O)cc1)C(=O)N[C@@H](Cc1c[nH]cn1)C(=O)N[C@@H](C)C(=O)N2
B6: cyclo(-Lys-His-Ala-Cys-His-Gly-^DPro-Trp-Thr-Ile-Cys-Tyr-Gln-Lys-^DPro-Pro-) (peptide)
peptide: cyclo(KHACHG[dP]WTICYQK[dP]P)
modifications: disulfide 4-11
SMILES: CC[C@H](C)[C@@H]1NC(=O)[C@H]([C@@H](C)O)NC(=O)[C@H](Cc2c[nH]c3ccccc23)NC(=O)[C@H]2CCCN2C(=O)CNC(=O)[C@H](Cc2c[nH]cn2)NC(=O)[C@@H]2CSSC[C@H](NC1=O)C(=O)N[C@@H](Cc1ccc(O)cc1)C(=O)N[C@@H](CCC(N)=O)C(=O)N[C@@H](CCCCN)C(=O)N1CCC[C@@H]1C(=O)N1CCC[C@H]1C(=O)N[C@@H](CCCCN)C(=O)N[C@@H](Cc1c[nH]cn1)C(=O)N[C@@H](C)C(=O)N2
B7: cyclo(-Tyr-His-Ala-Cys-Trp-Gly-^DPro-Trp-Thr-Ile-Cys-Tyr-Thr-Lys-^DPro-Pro-) (peptide)
peptide: cyclo(YHACWG[dP]WTICYTK[dP]P)
modifications: disulfide 4-11
SMILES: CC[C@H](C)[C@@H]1NC(=O)[C@H]([C@@H](C)O)NC(=O)[C@H](Cc2c[nH]c3ccccc23)NC(=O)[C@H]2CCCN2C(=O)CNC(=O)[C@H](Cc2c[nH]c3ccccc23)NC(=O)[C@@H]2CSSC[C@H](NC1=O)C(=O)N[C@@H](Cc1ccc(O)cc1)C(=O)N[C@@H]([C@@H](C)O)C(=O)N[C@@H](CCCCN)C(=O)N1CCC[C@@H]1C(=O)N1CCC[C@H]1C(=O)N[C@@H](Cc1ccc(O)cc1)C(=O)N[C@@H](Cc1c[nH]cn1)C(=O)N[C@@H](C)C(=O)N2
B8: cyclo(-Tyr-His-Lys-Cys-His-Gly-^DPro-Trp-Thr-Ile-Cys-Tyr-Glu-Lys-^DPro-Glu-) (peptide)
peptide: cyclo(YHKCHG[dP]WTICYEK[dP]E)
modifications: disulfide 4-11
SMILES: CC[C@H](C)[C@@H]1NC(=O)[C@H]([C@@H](C)O)NC(=O)[C@H](Cc2c[nH]c3ccccc23)NC(=O)[C@H]2CCCN2C(=O)CNC(=O)[C@H](Cc2c[nH]cn2)NC(=O)[C@@H]2CSSC[C@H](NC1=O)C(=O)N[C@@H](Cc1ccc(O)cc1)C(=O)N[C@@H](CCC(=O)O)C(=O)N[C@@H](CCCCN)C(=O)N1CCC[C@@H]1C(=O)N[C@@H](CCC(=O)O)C(=O)N[C@@H](Cc1ccc(O)cc1)C(=O)N[C@@H](Cc1c[nH]cn1)C(=O)N[C@@H](CCCCN)C(=O)N2
B9: cyclo(-Tyr-His-Ala-Cys-Trp-Gly-^DPro-Trp-Thr-Ile-Cys-Tyr-Ala-Lys-^DPro-Pro-) (peptide)
peptide: cyclo(YHACWG[dP]WTICYAK[dP]P)
modifications: disulfide 4-11
SMILES: CC[C@H](C)[C@@H]1NC(=O)[C@H]([C@@H](C)O)NC(=O)[C@H](Cc2c[nH]c3ccccc23)NC(=O)[C@H]2CCCN2C(=O)CNC(=O)[C@H](Cc2c[nH]c3ccccc23)NC(=O)[C@@H]2CSSC[C@H](NC1=O)C(=O)N[C@@H](Cc1ccc(O)cc1)C(=O)N[C@@H](C)C(=O)N[C@@H](CCCCN)C(=O)N1CCC[C@@H]1C(=O)N1CCC[C@H]1C(=O)N[C@@H](Cc1ccc(O)cc1)C(=O)N[C@@H](Cc1c[nH]cn1)C(=O)N[C@@H](C)C(=O)N2
B10: cyclo(-Tyr-His-Ala-Cys-His-Gly-^DPro-Trp-Thr-Ile-Cys-Tyr-Glu-Lys-^DPro-Pro-) (peptide)
peptide: cyclo(YHACHG[dP]WTICYEK[dP]P)
modifications: disulfide 4-11
SMILES: CC[C@H](C)[C@@H]1NC(=O)[C@H]([C@@H](C)O)NC(=O)[C@H](Cc2c[nH]c3ccccc23)NC(=O)[C@H]2CCCN2C(=O)CNC(=O)[C@H](Cc2c[nH]cn2)NC(=O)[C@@H]2CSSC[C@H](NC1=O)C(=O)N[C@@H](Cc1ccc(O)cc1)C(=O)N[C@@H](CCC(=O)O)C(=O)N[C@@H](CCCCN)C(=O)N1CCC[C@@H]1C(=O)N1CCC[C@H]1C(=O)N[C@@H](Cc1ccc(O)cc1)C(=O)N[C@@H](Cc1c[nH]cn1)C(=O)N[C@@H](C)C(=O)N2

biological target: T1, Formyl-Peptide Receptor 1; assay: cell-based or functional assay

β-Arrestin IC50 [nM] | Binder
213 | B1
598 | B2
735 | B3
404 | B4
458 | B5
590 | B6
202 | B7
169 | B8
278 | B9
189 | B10
